Experimental data published in patent publication US20170266254A1 (AILERON THERAPEUTICS, published 2017).
Bridges are numbered along the chain shown (N, C = ends). [ ]: non-standard residue; d: D form. R8 = C=CCCCCCC[C@@](C)(N)C(=O)O; S5 = C=CCCC[C@](C)(N)C(=O)O

T1: C-terminally 6x Histidine-tagged Beta-Catenin (aa 134-668, 59 KD) (UniProt P35222 134-668)
T1 construct: range 134-668; Armadillo repeat region
T1 sequence: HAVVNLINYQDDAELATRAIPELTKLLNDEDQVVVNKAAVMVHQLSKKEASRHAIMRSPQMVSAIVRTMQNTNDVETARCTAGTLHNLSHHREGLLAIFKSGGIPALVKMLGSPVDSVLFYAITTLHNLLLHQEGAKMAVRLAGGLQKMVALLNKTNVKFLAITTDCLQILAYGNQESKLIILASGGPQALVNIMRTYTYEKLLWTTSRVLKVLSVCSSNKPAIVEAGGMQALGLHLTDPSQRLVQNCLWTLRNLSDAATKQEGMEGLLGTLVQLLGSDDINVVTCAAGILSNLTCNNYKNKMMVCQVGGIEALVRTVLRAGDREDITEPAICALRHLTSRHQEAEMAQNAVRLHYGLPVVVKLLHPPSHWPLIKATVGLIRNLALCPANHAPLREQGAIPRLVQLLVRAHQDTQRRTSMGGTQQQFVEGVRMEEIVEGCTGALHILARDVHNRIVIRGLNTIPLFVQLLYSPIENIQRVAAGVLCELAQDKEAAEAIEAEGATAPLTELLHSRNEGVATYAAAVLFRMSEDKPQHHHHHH

B1: SP6 (peptide)
peptide: Ac-RDLA[S5]VKS[S5]LVNQS-NH2
modifications: staple 5-9
SMILES: CC(=O)N[C@@H](CCCNC(=N)N)C(=O)N[C@@H](CC(=O)O)C(=O)N[C@@H](CC(C)C)C(=O)N[C@@H](C)C(=O)N[C@@]1(C)CCCC=CCCC[C@@](C)(C(=O)N[C@@H](CC(C)C)C(=O)N[C@H](C(=O)N[C@@H](CC(N)=O)C(=O)N[C@@H](CCC(N)=O)C(=O)N[C@@H](CO)C(N)=O)C(C)C)NC(=O)[C@H](CO)NC(=O)[C@H](CCCCN)NC(=O)[C@H](C(C)C)NC1=O
notes: also called Ac-RDLA$VKS$LVNQS-NH2
B2: SP5 (peptide)
peptide: Ac-RNLADVKS[S5]LVN[S5]S-NH2
modifications: staple 9-13
SMILES: CC(=O)N[C@@H](CCCNC(=N)N)C(=O)N[C@@H](CC(N)=O)C(=O)N[C@@H](CC(C)C)C(=O)N[C@@H](C)C(=O)N[C@@H](CC(=O)O)C(=O)N[C@H](C(=O)N[C@@H](CCCCN)C(=O)N[C@@H](CO)C(=O)N[C@@]1(C)CCCC=CCCC[C@@](C)(C(=O)N[C@@H](CO)C(N)=O)NC(=O)[C@H](CC(N)=O)NC(=O)[C@H](C(C)C)NC(=O)[C@H](CC(C)C)NC1=O)C(C)C
B3: SP8 (peptide)
peptide: Ac-RDLANVKS[S5]LVN[S5]S-NH2
modifications: staple 9-13
SMILES: CC(=O)N[C@@H](CCCNC(=N)N)C(=O)N[C@@H](CC(=O)O)C(=O)N[C@@H](CC(C)C)C(=O)N[C@@H](C)C(=O)N[C@@H](CC(N)=O)C(=O)N[C@H](C(=O)N[C@@H](CCCCN)C(=O)N[C@@H](CO)C(=O)N[C@@]1(C)CCCC=CCCC[C@@](C)(C(=O)N[C@@H](CO)C(N)=O)NC(=O)[C@H](CC(N)=O)NC(=O)[C@H](C(C)C)NC(=O)[C@H](CC(C)C)NC1=O)C(C)C
B4: SP7 (peptide)
peptide: Ac-RDLA[R8]VKSSLV[S5]QS-NH2
modifications: staple 5-12
SMILES: CC(=O)N[C@@H](CCCNC(=N)N)C(=O)N[C@@H](CC(=O)O)C(=O)N[C@@H](CC(C)C)C(=O)N[C@@H](C)C(=O)N[C@]1(C)CCCCCCC=CCCC[C@@](C)(C(=O)N[C@@H](CCC(N)=O)C(=O)N[C@@H](CO)C(N)=O)NC(=O)[C@H](C(C)C)NC(=O)[C@H](CC(C)C)NC(=O)[C@H](CO)NC(=O)[C@H](CO)NC(=O)[C@H](CCCCN)NC(=O)[C@H](C(C)C)NC1=O
notes: also called Ac-RDLA$r8VKSSLV$QS-NH2
B5: SP56 (peptide)
peptide: Ac-RDLA[S5]VVS[S5]LVNES-NH2
modifications: staple 5-9
SMILES: CC(=O)N[C@@H](CCCNC(=N)N)C(=O)N[C@@H](CC(=O)O)C(=O)N[C@@H](CC(C)C)C(=O)N[C@@H](C)C(=O)N[C@@]1(C)CCCC=CCCC[C@@](C)(C(=O)N[C@@H](CC(C)C)C(=O)N[C@H](C(=O)N[C@@H](CC(N)=O)C(=O)N[C@@H](CCC(=O)O)C(=O)N[C@@H](CO)C(N)=O)C(C)C)NC(=O)[C@H](CO)NC(=O)[C@H](C(C)C)NC(=O)[C@H](C(C)C)NC1=O
notes: also called Ac-RDLA$VVS$LVNES-NH2
B6: SP55 (peptide)
peptide: Ac-SA[S5]RNL[S5]DVKSSLV-NH2
modifications: staple 3-7
SMILES: CC(=O)N[C@@H](CO)C(=O)N[C@@H](C)C(=O)N[C@@]1(C)CCCC=CCCC[C@@](C)(C(=O)N[C@@H](CC(=O)O)C(=O)N[C@H](C(=O)N[C@@H](CCCCN)C(=O)N[C@@H](CO)C(=O)N[C@@H](CO)C(=O)N[C@@H](CC(C)C)C(=O)N[C@H](C(N)=O)C(C)C)C(C)C)NC(=O)[C@H](CC(C)C)NC(=O)[C@H](CC(N)=O)NC(=O)[C@H](CCCNC(=N)N)NC1=O
notes: also called Ac-SA$RNL$DVKSSLV-NH2

Target: T1, C-terminally 6x Histidine-tagged …
Test: competitive fluorescence polarization, FAM-labelled linear probe as competitor, His-tagged beta-catenin 134-668
Method in brief: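 FP competition in 25 mM Tris-HCl pH 7.5, 200 mM NaCl, 5 mM CHAPS, 2 mM DTT at room temperature. Competitor peptides at 40–0.7 μM 2× working range, constant DMSO. Probe (benchmark peptide with N-terminal FAM via β-Ala spacer) from 25 nM 10× stock. Read after 3 h in the dark, ex 485/em 528 nm.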

| Binder | IC50 [µM] |
| --- | --- |
| B1 | ≥ 100 |
| B2 | ≥ 100 |
| B3 | ≥ 100 |
| B4 | ≥ 100 |
| B5 | ≥ 100 |
| B6 | ≥ 100 |
